Where two headings read alike, the source gives them in different places.
T1: human NPR1 full-length protein overexpressed on CHO-K1 cells (human, UniProt P16066 33-1061)
T1 construct: also called hNPR1-CHOK1; hNPR1 CHO-K1
T1 sequence: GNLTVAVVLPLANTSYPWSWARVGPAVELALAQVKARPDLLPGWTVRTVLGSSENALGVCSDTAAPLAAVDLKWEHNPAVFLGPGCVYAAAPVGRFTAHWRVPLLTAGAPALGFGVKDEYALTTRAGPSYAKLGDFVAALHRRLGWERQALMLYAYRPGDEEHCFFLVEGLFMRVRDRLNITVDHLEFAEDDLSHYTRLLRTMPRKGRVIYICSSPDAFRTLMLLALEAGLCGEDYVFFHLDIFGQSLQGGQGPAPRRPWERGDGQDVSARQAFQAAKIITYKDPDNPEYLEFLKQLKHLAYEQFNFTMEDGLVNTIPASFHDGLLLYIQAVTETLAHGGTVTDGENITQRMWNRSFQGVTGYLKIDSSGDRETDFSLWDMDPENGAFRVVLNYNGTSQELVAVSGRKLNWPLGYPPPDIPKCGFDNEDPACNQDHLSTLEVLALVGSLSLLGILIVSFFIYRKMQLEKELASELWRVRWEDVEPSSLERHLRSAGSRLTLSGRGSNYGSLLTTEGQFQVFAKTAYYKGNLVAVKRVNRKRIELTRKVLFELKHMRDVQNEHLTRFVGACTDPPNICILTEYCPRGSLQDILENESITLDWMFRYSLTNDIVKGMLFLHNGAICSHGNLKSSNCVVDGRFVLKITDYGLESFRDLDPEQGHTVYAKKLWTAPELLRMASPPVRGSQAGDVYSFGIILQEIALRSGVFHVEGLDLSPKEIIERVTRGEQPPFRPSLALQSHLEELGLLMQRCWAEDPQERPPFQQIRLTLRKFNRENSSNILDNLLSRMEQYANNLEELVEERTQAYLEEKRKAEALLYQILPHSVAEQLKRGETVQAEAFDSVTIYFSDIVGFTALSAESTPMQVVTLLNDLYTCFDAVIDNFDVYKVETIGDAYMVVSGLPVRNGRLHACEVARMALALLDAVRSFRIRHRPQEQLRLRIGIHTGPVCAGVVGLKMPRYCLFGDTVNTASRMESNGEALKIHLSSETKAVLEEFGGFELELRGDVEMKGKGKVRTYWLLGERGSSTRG

T2: hNPR2 (human, UniProt P20594 23-458, limits assumed)
T2 construct: Commercial protein; construct not described; also called hNPR2 antigen
T2 sequence (looked up): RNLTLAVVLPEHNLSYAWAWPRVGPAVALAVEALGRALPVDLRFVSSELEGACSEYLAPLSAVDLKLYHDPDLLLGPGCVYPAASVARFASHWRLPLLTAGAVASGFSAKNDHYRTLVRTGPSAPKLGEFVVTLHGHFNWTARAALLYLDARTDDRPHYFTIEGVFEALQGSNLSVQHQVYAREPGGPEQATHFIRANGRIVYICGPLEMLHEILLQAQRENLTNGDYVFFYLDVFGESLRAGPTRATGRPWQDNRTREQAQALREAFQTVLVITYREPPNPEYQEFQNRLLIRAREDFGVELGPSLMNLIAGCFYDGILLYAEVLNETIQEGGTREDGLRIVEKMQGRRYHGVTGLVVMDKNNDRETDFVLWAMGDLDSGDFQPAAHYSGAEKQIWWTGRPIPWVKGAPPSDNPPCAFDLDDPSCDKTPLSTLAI


Legend:
[1] = molecular target: T3, cynomolgus monkey NPR1 full-length protein overexpressed on CHO-K1 cells (cynomolgus monkey); experiment: flow cytometry on cNPR1-expressing CHO-K1 cells, without ANP
T3 construct: whole, on cells; also called cNPR1-CHOK1; cNPR1 CHO-K1

[2] = molecular target: T3, cynomolgus monkey NPR1 full-length …; experiment: flow cytometry on cNPR1-expressing CHO-K1 cells, antibody pre-mixed with 10 nM ANP
[3] = molecular target: T1, human NPR1 full-length protein …; experiment: flow cytometry on hNPR1-expressing CHO-K1 cells, without ANP
[4] = molecular target: T1, human NPR1 full-length protein …; experiment: flow cytometry on hNPR1-expressing CHO-K1 cells, antibody pre-mixed with 10 nM ANP
hNPR2 = molecular target: T2, hNPR2; experiment: ELISA, plate coated with 4 µg/mL antigen
[5] = molecular target: T1, human NPR1 full-length protein …; experiment: cell-based or functional assay
[6] = molecular target: T1, human NPR1 full-length protein …; experiment: cell-based or functional assay; remark: listed apart in the source
[7] = molecular target: T4, fusion protein of the human NPR1 protein extracellular domain and human-IgG1-Fc (human); experiment: ELISA, plate coated with 4 µg/mL hNPR1 antigen
T4 construct: also called hNPR1-hFc; hNPR1

[8] = molecular target: T1, human NPR1 full-length protein …; experiment: cell-based or functional assay; remark: listed apart in the source
[9] = molecular target: T1, human NPR1 full-length protein …; experiment: cell-based or functional assay; remark: listed apart in the source
[10] = molecular target: T1, human NPR1 full-length protein …; experiment: cell-based or functional assay; remark: listed apart in the source
[11] = molecular target: T1, human NPR1 full-length protein …; experiment: cell-based or functional assay; remark: listed apart in the source
[12] = molecular target: T1, human NPR1 full-length protein …; experiment: cell-based or functional assay; remark: listed apart in the source

T4 sequence (chain, as listed by the source limits assumed): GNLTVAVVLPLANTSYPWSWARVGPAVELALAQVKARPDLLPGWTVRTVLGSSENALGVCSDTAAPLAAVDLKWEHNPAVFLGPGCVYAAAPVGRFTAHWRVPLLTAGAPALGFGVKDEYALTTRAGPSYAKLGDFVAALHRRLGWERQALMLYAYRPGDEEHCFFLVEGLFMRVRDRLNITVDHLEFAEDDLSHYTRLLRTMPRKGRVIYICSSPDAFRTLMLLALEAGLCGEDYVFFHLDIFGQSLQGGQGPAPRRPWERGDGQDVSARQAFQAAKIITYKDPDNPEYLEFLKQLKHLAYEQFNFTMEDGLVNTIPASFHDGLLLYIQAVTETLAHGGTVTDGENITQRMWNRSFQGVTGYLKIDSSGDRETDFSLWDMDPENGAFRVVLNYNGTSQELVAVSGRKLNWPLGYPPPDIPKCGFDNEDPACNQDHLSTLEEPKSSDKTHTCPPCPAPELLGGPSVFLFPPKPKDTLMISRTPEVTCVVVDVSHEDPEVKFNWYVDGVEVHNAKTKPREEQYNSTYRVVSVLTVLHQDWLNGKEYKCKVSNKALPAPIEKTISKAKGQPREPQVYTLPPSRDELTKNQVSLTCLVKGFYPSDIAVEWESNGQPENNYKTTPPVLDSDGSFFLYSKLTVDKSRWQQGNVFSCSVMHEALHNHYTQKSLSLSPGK

| Ratio (without ANP) of NPR1 antigens remaining on the cell surface after endocytosis to the initial number, 10 min, 20 µg/mL [5] [ratio] | Ratio (without ANP) of NPR1 antigens remaining on the cell surface after endocytosis to the initial number, 1 h, 20 µg/mL [5] [ratio] | Ratio (without ANP) of NPR1 antigens remaining on the cell surface after endocytosis to the initial number, 7 hrs, 20 µg/mL [5] [ratio] | Ratio (without ANP) of NPR1 antigens remaining on the cell surface after endocytosis to the initial number, 24 hrs, 20 µg/mL [5] [ratio] | EC50 [7] [nM] | Binder | binding result (hNPR2) | further results |
| --- | --- | --- | --- | --- | --- | --- | --- |
| 0.85 | 0.67 | 0.63 | 0.76 | 0.02 | Hu135H3L1 (antibody, human IgG1, kappa, L234A L235A, V domains shown, Humanized, human IgG1 LALA/kappa; also called Hul35H3L1) VH: DVKLVESGEGLVKPGGSLRLSCAASGFSISTYGMSWVRQAPGKRLEWVAYINSGGNYIYYADSVKGRFTISRDNAKNSLYLQMNSLRAEDTAVYYCTRDRTTIVVHWYFDVWGQGTTVTVSS VL: DIQLTQSPSSLSASVGDRVTITCSASSSLNFMHWYQQKPGKSPKRWIYDTSKLASGVPSRFSGSGSGTDYTLTISSLQPEDFATYYCHQRSSTFGGGTKVEIKR | no binding (tested: 20 µg/mL (highest concentration)) | cGMP production: EC50 [6]: 171 nM; cGMP production: Emax [6]: 0.43; cGMP production: Emin [6]: 0.179 |
| 1.14 | 0.58 | 0.53 | 0.73 | 1.32 | Hu102H4L6 (antibody, human IgG1, kappa, L234A L235A, V domains shown, Humanized, human IgG1 LALA/kappa; also called Hul02H4L6) VH: DVKLVESGEGLVKPGGSLRLSCAASGFTFSSYAMSWVRQAPGKRLEWVAYISRGGDYIYYADSVKGRFTISRDNAKNSLYLQMNSLRAEDSAVYYCTRDQTTVVVHWYFDVWGQGTTVTVSS VL: DIQLTQSPSSLSASVGDRVTITCSASSSINYMHWYQQKPGKSPKRWIYDTSKLASGVPSRFSGSGSGTDYTLTISSLQPEDFATYYCHQRNSYTFGGGTKVEIKR | no binding (tested: 20 µg/mL (highest concentration)) | cGMP production: EC50 [8]: 45.9 nM; cGMP production: Emax [8]: 0.65; cGMP production: Emin [8]: 0.17 |
| 1.3 | 0.91 | 0.96 | 0.82 | 1.84 | Hu128H3L1-6 (antibody, human IgG1, kappa, L234A L235A, V domains shown, Humanized, human IgG1 LALA/kappa) VH: EVQLVQSGAEVKKPGASVKVSCKASGYTFTSYWMHWVRQAPGQGLEWMGRIDPNSGVTKYNEKFKSRVTLTVDKPSSPAYMELSSLRSEDTAVYYCARSSYLGRYFDVWGQGTTVTVSS VL: EIVLTQSPATLSLSPGERATLKCSATSSVSYMYWYQQKPGQAPRLLIYDTYNLGSRIPARFSGSGSGTDYTLTISRLEPEDFAVYYCQQWSSYPPTFGQGTKLEIKR | no binding (tested: 20 µg/mL (highest concentration)) | cGMP production: EC50 [9]: 7.9 nM |
| 1.31 | 0.86 | 1.11 | 1.02 | 8.65 | Hu140H5L5-11 (antibody, human IgG1, kappa, L234A L235A, V domains shown, Humanized, human IgG1 LALA/kappa) VH: QVQLVQSGAEVKKPGASVKVSCKASGYTFTSYWMHWVRQAPGQGLEWMGRIDPNSGVTKYNEKFKSRVTLTVDKPSSPAYMELSSLRSEDTAVYYCARSGGLRRYFDVWGQGTTVTVSS VL: EIVLTQSPATLSLSPGERAQLSCSASSSVSYMYWYQQKPGQAPRLLIYDTYNLASGVPDRFSGSGSGTSYTLTISRLEPEDFAVYYCQQWSSYPPTFGAGTKLEIKR | no binding (tested: 20 µg/mL (highest concentration)) | cGMP production: EC50 [11]: 36 nM |

The next lines start with the binder.

| Binder | Ratio (without ANP) of NPR1 antigens remaining on the cell surface after endocytosis to the initial number, 10 min, 20 µg/mL [5] [ratio] | Ratio (without ANP) of NPR1 antigens remaining on the cell surface after endocytosis to the initial number, 1 h, 20 µg/mL [5] [ratio] | Ratio (without ANP) of NPR1 antigens remaining on the cell surface after endocytosis to the initial number, 7 hrs, 20 µg/mL [5] [ratio] | Ratio (without ANP) of NPR1 antigens remaining on the cell surface after endocytosis to the initial number, 24 hrs, 20 µg/mL [5] [ratio] | EC50 [7] [nM] | binding result (hNPR2) | further results |
| --- | --- | --- | --- | --- | --- | --- | --- |
| CHI-135 (antibody, human IgG1, kappa, V domains shown, Chimeric human IgG1/kappa; also called NPR1-CHAb-SFM-135; chimeric antibody of murine antibody 135) VH: DVKLVESGEGLVKPGGSLKLSCVASGFSISTYGMSWVRQTPEKRLEWVAYINSGGNYIYYADTVKGRFTISRDNARNTLYLQMSSLKSEDTAMYYCTRDRTTIVVHWYFDVWGTGTTVTVSS VL: QIVLTQSPAIMSASPGEKVTMTCSASSSLNFMHWYQQKPGTSPKRWIYDTSKLASGVPARFSGSGSGTSYSLTISSMEAEDAATYYCHQRSSTFGGGTKLELKR | – | – | – | – | – | – | EC50 [1]: 3.59 nM; EC50 [2]: 1.63 nM; EC50 [3]: 4.39 nM; EC50 [4]: 2.49 nM |
| Hu128H3L2 (antibody, human IgG1, kappa, L234A L235A, V domains shown) VH: EVQLVQSGAEVKKPGASVKVSCKASGYTFTSYWMHWVRQAPGQGLEWMGRIDPNSGVTKYNEKFKSRVTLTVDKPSSPAYMELSSLRSEDTAVYYCARSSYLGRYFDVWGQGTTVTVSS VL: EIVLTQSPATLSLSPGERATLSCSATSSVSYMYWYQQKPGSSPRLLIYDTYNLASRIPARFSGSGSGTDYTLTISRLEPEDFAVYYCQQWSSYPPTFGQGTKLEIKR | – | – | – | – | – | – | cGMP production: EC50 [10]: 4.6 nM |
| Hu128H3L1 (antibody, human IgG1, kappa, L234A L235A, V domains shown) VH: EVQLVQSGAEVKKPGASVKVSCKASGYTFTSYWMHWVRQAPGQGLEWMGRIDPNSGVTKYNEKFKSRVTLTVDKPSSPAYMELSSLRSEDTAVYYCARSSYLGRYFDVWGQGTTVTVSS VL: EIVLTQSPATLSLSPGERATLSCSATSSVSYMYWYQQKPGQAPRLLIYDTYNLASRIPARFSGSGSGTDYTLTISRLEPEDFAVYYCQQWSSYPPTFGQGTKLEIKR | – | – | – | – | – | – | cGMP production: EC50 [10]: 5.8 nM |
| Hu140H5L5 (antibody, human IgG1, kappa, L234A L235A, V domains shown) VH: QVQLVQSGAEVKKPGASVKVSCKASGYTFTSYWMHWVRQAPGQGLEWMGRIDPNSGVTKYNEKFKSRVTLTVDKPSSPAYMELSSLRSEDTAVYYCARSGGLRRYFDVWGQGTTVTVSS VL: EIVLTQSPATLSLSPGERATLSCSASSSVSYMYWYQQKPGQAPRLLIYDTYNLASGVPARFSGSGSGTSYTLTISRLEPEDFAVYYCQQWSSYPPTFGAGTKLEIKR | – | – | – | – | – | – | cGMP production: EC50 [11]: 40.9 nM |
| CHI-127 (antibody, human IgG1, kappa, V domains shown, Chimeric human IgG1/kappa; also called NPR1-CHAb-SFM-127-1; chimeric antibody of murine antibody 127) VH: QAYLQQSGPELVKPGASVKISCKASGYSFTGYFMNWVMQSHGKSLEWIGRINPYNGDTFYNQKFKGKATLTVDKSSSTVHMELRSLASEDSAVYYCARRGYGNRGYWYFDVWGAGTTVTVSS VL: NIVLTQSPASLAVSLGQRATISCRASESVDSYGNSFMHWYQQKPGQPPKVLIYLASTLESGVPARFSGSGSRTDFTLTIDPVEADDAATYYCQQNNEDPLTFGAGTKLELKR | – | – | – | – | – | – | EC50 [1]: 1.19 nM; EC50 [2]: 1.28 nM; cGMP production: EC50 [12]: 42.7 nM; cGMP production: Emax [12]: 0.43; cGMP production: Emin [12]: 0.077; EC50 [3]: 1.73 nM; EC50 [4]: 1.74 nM |

Reference: patent EP4725963A1 (Jiangsu Hengrui Pharmaceuticals Co., Ltd., dated 2026)
